Results published in paper PMC5382265, “Macrocycle peptides delineate locked-open inhibition mechanism for microorganism phosphoglycerate mutases” (Nature Communications, 2017).

Target: C. elegans cofactor-independent phosphoglycerate mutase (iPGM) (C. elegans) (UniProt G5EFZ1)

Ce-2S (Ce-2 with Cys14Ser) (peptide) gave an IC50 of inhibition of PGM activity, enzyme-coupled bioluminescent assay of 0.01 µM.
